Assay results: patent US20240415886A1 (published 2024)

Biological target: T1, p53 wild type peptide on HLA-A*02:01 (human)
T1 peptide: HMTEVVRRC
Assay: activation reporter or marker

B1: p53R175H peptide specific TCR (the inventive TCR) (TCR, V domains shown)
Valpha: GIQVEQSPPDLILQEGANSTLRCNFSDSVNNLQWFHQNPWGQLINLFYIPSGTKQNGRLSATTVATERYSLLYISSSQTTDSGVYFCAVNQAGTALIFGKGTTLSVSS
Vbeta: EPEVTQTPSHQVTQMGQEVILRCVPISNHLYFYWYRQILGQKVEFLVSFYNNEISEKSEIFDDQFSVERPDGSNFTLKIRSTKLEDSAMYFCASMGTGDEAFFGQGTRLTVV
binding result: no recognition
